Source: publication PMC7666158

B1: Sbit-ATF2(19–100), ATF2 TAD wild type (NanoBiT probe) [human] / Lbit-JNK1 (NanoBiT probe) [human] (parent)
chain 1: MSDDKPFLCTAPGCGQRFTNEDHLAVHKHKHEMTLKFGPARNDSVIVADQTPTPTRFLKNCEEVGLFNELASPFENEFKKAS
chain 2: MSRSKRDNNFYSVEIGDSTFTVLKRYQNLKPIGSGAQGIVCAAYDAILERNVAIKKLSRPFQNQTHAKRAYRELVLMKCVNHKNIIGLLNVFTPQKSLEEFQDVYIVMELMDANLCQVIQMELDHERMSYLLYQMLCGIKHLHSAGIIHRDLKPSNIVVKSDCTLKILDFGLARTAGTSFMMTPYVVTRYYRAPEVILGMGYKENVDLWSVGCIMGEMVCHKILFPGRDYIDQWNKVIEQLGTPCPEFMKKLQPTVRTYVENRPKYAGYSFEKLFPDVLFPADSEHNKLKASQARDLLSKMLVIDASKRISVDEALQHPYINVWYDPSEAEAPPPKIPDKQLDEREHTIEEWKELIYKEVMDLEERTKNGVIRGQPSPLGAAVINGSQHPSSSSSVNDVSSMSTDPTLASDTDSSLEAAAGPLGCCR

Variants of: B1
Test: NanoBit luciferase complementation in HEK293T cells
Conditions: with Lbit-JNK1 (NanoBiT probe) [human]; anisomycin (30 min); normalized to control (−) = 1.0; read off a plot; scale: relative luminescence intensity

| response | Variant |
| --- | --- |
| 1 | chain 1 K30E |
